Assay results reported in US20130287781A1 (GlaxoSmithKline, published 2013).
Numbering of substitutions follows the chain as printed. Names and notes keep the numbering of the source. Where no end group is shown, it is not given here. The star is where a group is joined. Biotin = O=C1N[C@H]2[C@H](CS[C@H]2CCCCC(=O)*)N1

Columns and labels:
[1] = target: T1, H28L16; assay: competition ELISA: H28L16 captured on anti-human IgG, peptide pre-mixed with GST-human NOGO-A56 (1 ug/ml), bound NOGO detected with anti-GST-HRP
T1 construct: IgG1 (L235A, G237A) / kappa; CAMPATH-1H signal (1-19) left out; also called H28FL L16FL; NOGO H28L16
Description: The plates were rinsed 3 times with TBS containing 0.05% Tween (TBST) then blocked with 1% BSA in TBST at room temperature for 1 hour. […] The plates were washed 3 times with TBST. Peptides (from 0 to 100 g/ml) and GST-human NOGO-A56 at a concentration of 1 ug/ml (diluted in 1% BSA in TBST) were pre-mixed prior to addition into the wells and incubated at room temperature for 1 hour. The plates were washed 3 times with TBST then incubated for 1 hour with rabbit anti-GST peroxidase conjugate (Sigma, #A7340, 1:2000, diluted in 1% BSA in TBST) for 1 hour. The plates were washed 3 times with TBST and then incubated with 50 l OPD peroxidase substrate (Sigma) per well for 10 minutes. The colour reaction was stopped by the addition of 25 l concentrated H₂SO₄. Absorbance at 490 nm was measured using a plate reader.

[2] = target: T2, GST-human NOGO-A56 (human); assay: direct ELISA, GST-human NOGO-A56 coated at 1.0 mcg/ml, purified antibody, OD490
T2 construct: Expressed in E. coli BL21 from pGEX-6P1 and purified on glutathione-sepharose; the GST tag is part of the protein in the assays; also called GST-Nogo-A 5+6; GST Nogo-A 5 + 6
Description: (§1) Wells were rinsed once with TBS+0.05% Tween (TBST) then incubated with 2% BSA in TBST to block non-specific binding sites at room temperature for 1 hour. Antibodies were diluted in TBST+2% BSA to 10 μg/ml and ½ dilutions made from this. Antibodies were added to wells in duplicate and incubated at room temperature for 1 hour. […] The wells were washed three times with TBST and then incubated with 100 μl OPD peroxidase substrate (Sigma) per well for 10 minutes. The colour reaction was stopped by the addition of 25 μl concentrated H₂SO₄. Optical density at 490 nm was measured using a plate reader. Background values read from wells with no antibody were subtracted.

[3] = target: T2, GST-human NOGO-A56; assay: as above; remark: listed apart in the source
Description: as §1

[4] = target: T2, GST-human NOGO-A56; assay: SPR (Biacore) off-rate ranking on GST-human NOGO-A56 chip, one experiment
Description: (§2) GST-human NOGO-A56 was immobilised to a CM5 chip by primary amine coupling using the Biacore Wizard program designed for targeted immobilisation levels. The CM5 sensor surface was activated by passing a solution of 50 mM N-hydroxy-succinimide (NHS) and 200 mM N-ethyl-N′-dimethylaminopropyl carbonide (EDC). Then GST-human NOGO-A56 in sodium acetate buffer, pH5.0 or pH 4.5, was passed over the chip and immobilised. After immobilisation was complete any still activated esters were blocked by an injection of 1M ethanolamine hydrochloride, pH8.5.
The GST-human NOGO-A56 chip was prepared as for kinetic analysis. Cell supernatants where taken directly from transient transfections of CHO-K1 cells. These were passed directly over the sensor surface and the interaction measured. A mock transfected cell supernatant was used for double referencing to remove any artefacts due to the tissue culture media. All runs were referenced against a blanked sensor surface (one that had been activated and blocked as described earlier but had no addition of ligand). Analysis of binding was carried out using the BIAevaluation kinetic analysis software version 4.1.

[5] = target: T2, GST-human NOGO-A56; assay: SPR (Biacore) off-rate on NOGO chip, panel of H6FL CDR H3 variants with L13FL
[6] = target: T2, GST-human NOGO-A56; assay: SPR (Biacore), NOGO amine-coupled to CM5, antibody flowed over
Description: as §2

[7] = target: T2, GST-human NOGO-A56; assay: SPR (Biacore), GST-human NOGO-A56 amine-coupled to CM5, antibody flowed over, 25 C
Description: as §2
(§3) The anti-NOGO mAbs were diluted down in HBS-EP (10 mM HEPES, pH 7.4, 150 mM NaCl, 3 mM EDTA, and 0.005% P-20 surfactant) for the BIAcore 3000 or HBS-EP+ (10 mM HEPES, pH 7.4, 150 mM NaCl, 3 mM EDTA, and 0.05% P-20 surfactant) in the case of the T100 and binding studies were carried out at range of defined antibody concentrations. All runs were referenced against a blanked sensor surface (one that had been activated and blocked as described earlier but had no addition of ligand). Analysis of binding was carried out using the BIAevaluation kinetic analysis software version 4.1 for the BIAcore 3000 and T100 kinetic analysis software version 1.0. […] Unless otherwise stated, the BIAcore experiments were performed at 25° C.

[8] = target: T2, GST-human NOGO-A56; assay: SPR (Biacore), GST-human NOGO-A56 amine-coupled to CM5, antibody flowed over, 37 C
Description: as §2, §3

[9] = target: T2, GST-human NOGO-A56; assay: SPR (Biacore), GST-human NOGO-A56 amine-coupled to CM5, antibody flowed over, 25 C; remark: listed apart in the source
Description: as §2, §3

[10] = target: T2, GST-human NOGO-A56; assay: as above; remark: listed apart in the source
Description: as §2, §3

[11] = target: T2, GST-human NOGO-A56; assay: SPR (Biacore T100), antigen amine-coupled to CM5, antibody 0.125-8 nM; mean of six runs in duplicate (SD in brackets)
Excerpt: In the first approach, the recombinant Nogo-A was coupled to the surface of the chip and anti-Nogo-A antibodies passed over this surface. In the second approach, Protein A was used to capture the antibody onto the surface of the chip over which the recombinant GST-human Nogo-A56 was passed.
The antigen was bound to the CM5 chip by primary amine coupling. […] The values show the mean and standard deviation (in brackets) of six independent runs carried out in duplicate. Each completed data set was analysed independently prior to the calculation of mean and standard deviation.

[12] = target: T2, GST-human NOGO-A56; assay: direct ELISA, GST-Nogo-A 5+6 coated at 1.0 mcg/ml, anti-human IgG-HRP, Abs490
Description: as §1

[13] = target: T2, GST-human NOGO-A56; assay: reverse format ELISA: antibody captured on anti-human IgG, GST-Nogo-A 5+6 detected with anti-GST-HRP; the x axis is the antibody concentration
[14] = target: T2, GST-human NOGO-A56; assay: SPR (Biacore T100), reverse format: antibody captured by Protein A, GST Nogo-A 5+6 0.125-8 nM flowed over; mean (SD in brackets)
Excerpt: Protein A was immobilised to approximately 4000RUs by primary amine and used to capture 200-300RUs of the sample antibodies. […] The values show the mean and standard deviation (in brackets) of three independent runs in duplicate. Each data set was independently analysed prior to the calculation of the mean and standard deviation.

[15] = target: T2, GST-human NOGO-A56; assay: competition ELISA on coated GST-Nogo-A 5+6; competitor 2A10 pre-mixed, bound 2A10 detected with anti-mouse IgG-HRP

T1 sequence (light, as listed by the source): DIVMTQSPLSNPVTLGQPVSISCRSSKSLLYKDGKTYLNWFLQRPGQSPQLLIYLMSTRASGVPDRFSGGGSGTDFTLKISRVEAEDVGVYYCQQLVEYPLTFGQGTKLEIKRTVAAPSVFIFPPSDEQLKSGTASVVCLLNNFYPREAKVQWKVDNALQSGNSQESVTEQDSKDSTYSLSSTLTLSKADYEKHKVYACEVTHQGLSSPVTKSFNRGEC
T2 sequence (chain, as listed by the source limits assumed): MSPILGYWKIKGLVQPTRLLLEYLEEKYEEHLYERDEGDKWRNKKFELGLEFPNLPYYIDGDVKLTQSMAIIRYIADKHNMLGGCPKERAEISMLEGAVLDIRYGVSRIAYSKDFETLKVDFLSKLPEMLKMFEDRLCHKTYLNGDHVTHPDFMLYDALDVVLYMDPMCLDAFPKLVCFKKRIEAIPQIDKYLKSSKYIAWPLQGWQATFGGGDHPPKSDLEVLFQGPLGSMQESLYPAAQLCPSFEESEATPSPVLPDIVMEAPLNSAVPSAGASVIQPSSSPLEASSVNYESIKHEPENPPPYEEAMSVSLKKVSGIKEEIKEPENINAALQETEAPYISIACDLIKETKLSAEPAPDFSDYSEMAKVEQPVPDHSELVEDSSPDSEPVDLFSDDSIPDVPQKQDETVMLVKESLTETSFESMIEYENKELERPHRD

Biotin-SGSGTPSPVLPDIVMEAPLN [peptide 6 (biotin-SGSG-TPSPVLPDIVMEAPLN)]
binding result [1]: binds

B1: H6L13 (H6FL L13FL) (antibody, human IgG1, kappa, V domains shown)
VH: QVQLVQSGAEVKKPGASVKVSCKASGYTFTSYWMHWVRQAPGQGLEWIGNINPSNGGTNYNEKFKSRATMTRDTSTSTAYMELSSLRSEDTAVYYCELGQGYWGQGTLVTVSS
VL: DIVMTQSPLSLPVTLGQPASISCRSSKSLLYKDGKTYLNWFQQRPGQSPQLLIYLMSTRASGVPDRFSGGGSGTDFTLKISRVEAEDVGVYYCQQLVEYPLTFGQGTKLEIKR
notes: Human IgG1 (L235A, G237A, EU Index) / kappa; also called H6L13 with VH CDR3 GQGY
EC50 (read off the curve) [2]: ~0.1 µg/mL | EC50 (read off the curve) [3]: ~0.1 µg/mL | koff [4]: 0.0138 s⁻¹ | koff [5]: 0.0198 s⁻¹ | Kd [6]: 6.97 nM | koff [6]: 0.00722 s⁻¹ | kon [6]: 1.04e+06 M⁻¹ s⁻¹

B2: H100L100 (antibody, V domains shown)
VH: B1 VH with G101S
VL: DIVMTQSPLSLPVTLGQPASISCRSSKSLLYKDGKTYLNWFRQRPGQSPQLLIYLMSTRASGVPDRFSGGGSGTDFTLKISRVEAEDVGVYYCQQLVEYPLTFGQGTKLEIK
notes: Full length versions of the heavy and light chains were expressed in CHO cells; H100 is H6 VH with G101S (Kabat), L100 is L13 VL with Q37R (Kabat); also called G101S/Q37R variant
Kd [6]: 0.396 nM | koff [6]: 0.00507 s⁻¹ | kon [6]: 1.28e+07 M⁻¹ s⁻¹

B3: H6L13 variant with VH CDR3 GQYY (antibody, human IgG1, kappa, V domains shown)
VH: B1 VH with G101Y
VL: B1 VL
notes: Single point variant of H6FL with L13FL
koff [5]: 0.0328 s⁻¹

B4: H6L13 variant with VH CDR3 GSGY (antibody, human IgG1, kappa, V domains shown)
VH: B1 VH with Q100S
VL: B1 VL
notes: as for B3
koff [5]: 0.0207 s⁻¹

B5: H16L16 (antibody, human IgG1, kappa, V domains shown)
VH: B1 VH with R38K, A40R, R67K, M70L, R72V, T74K
VL: B1 VL with L11N, A19V, Q42L
notes: IgG1 (L235A, G237A) / kappa; CAMPATH-1H signal (1-19) left out
Kd [7]: 1.08 nM | koff [7]: 0.00372 s⁻¹ | kon [7]: 3.43e+06 M⁻¹ s⁻¹ | EC50 (read off the curve) [2]: ~0.08 µg/mL | Kd [8]: 1.16 nM | koff [8]: 0.00616 s⁻¹ | kon [8]: 5.31e+06 M⁻¹ s⁻¹

B6: H6L13 variant with VH CDR3 GAGY (antibody, human IgG1, kappa, V domains shown)
VH: B1 VH with Q100A
VL: B1 VL
notes: as for B3
koff [5]: 0.0315 s⁻¹

B7: H6L13 variant with VH CDR3 GIGY (antibody, human IgG1, kappa, V domains shown)
VH: B1 VH with Q100I
VL: B1 VL
notes: as for B3
koff [5]: 0.0257 s⁻¹

B8: H6L13 variant with VH CDR3 GQSY (antibody, human IgG1, kappa, V domains shown)
VH: B1 VH with G101S
VL: B1 VL
notes: as for B3
koff [5]: 0.0186 s⁻¹

B9: H6L13 variant with VH CDR3 GLGY (antibody, human IgG1, kappa, V domains shown)
VH: B1 VH with Q100L
VL: B1 VL
notes: as for B3
koff [5]: 0.019 s⁻¹

B10: H6L13 variant with VH CDR3 GQFY (antibody, human IgG1, kappa, V domains shown)
VH: B1 VH with G101F
VL: B1 VL
notes: as for B3
koff [5]: 0.0335 s⁻¹

B11: H1L11 (antibody, human IgG1, kappa, V domains shown)
VH: B1 VH with I48M, A68V, A79V
VL: B1 VL with M4I
notes: CDR H3 GQGY; also called humanised 2A10 variant H1L11 of WO05/061544
EC50 (read off the curve) [2]: ~0.2 µg/mL

B12: H100L101 (antibody, V domains shown)
VH: B1 VH with G101S
VL: B2 VL with R42Q, Q50R
notes: Full length version expressed in CHO cells; L101 is L13 VL with Q45R (Kabat)
Kd [6]: 0.329 nM | koff [6]: 0.00429 s⁻¹ | kon [6]: 1.3e+07 M⁻¹ s⁻¹

B13: H28L13 (antibody, human IgG1, kappa, V domains shown)
VH: B1 VH with R67K, G99M
VL: B1 VL
notes: IgG1 (L235A, G237A) / kappa; CAMPATH-1H signal (1-19) left out; also called H28FL L13FL
Kd [7]: 0.936 nM | koff [7]: 0.00389 s⁻¹ | kon [7]: 4.16e+06 M⁻¹ s⁻¹ | Kd [9]: 0.454 nM | koff [9]: 0.0033 s⁻¹ | kon [9]: 7.26e+06 M⁻¹ s⁻¹ | EC50 (read off the curve) [2]: ~0.07 µg/mL | EC50 (read off the curve) [3]: ~0.08 µg/mL | Kd [10]: 0.45 nM | koff [10]: 0.00317 s⁻¹ | kon [10]: 6.97e+06 M⁻¹ s⁻¹ | Kd [11]: 1.11 nM | Kd [8]: 1.02 nM | koff [8]: 0.00759 s⁻¹ | kon [8]: 7.43e+06 M⁻¹ s⁻¹ | EC50 (read off the curve) [12]: ~0.03 µg/mL | EC50 (read off the curve) [13]: ~0.06 µg/mL | Kd [14]: 0.34 nM | IC50 (read off the curve) [15]: ~5 µg/mL

B14: H6L13 variant with VH CDR3 GQLY (antibody, human IgG1, kappa, V domains shown)
VH: B1 VH with G101L
VL: B1 VL
notes: as for B3
koff [5]: 0.0132 s⁻¹

B15: H6L13 variant with VH CDR3 GQGW (antibody, human IgG1, kappa, V domains shown)
VH: B1 VH with Y102W
VL: B1 VL
notes: as for B3
koff [5]: 0.0216 s⁻¹

B16: H27L13 (antibody, human IgG1, kappa, V domains shown)
VH: B1 VH with R38K, A40R, R67K, M70L, R72V, T74K, G99M
VL: B1 VL
notes: as for B5
Kd [7]: 0.606 nM | koff [7]: 0.00213 s⁻¹ | kon [7]: 3.5e+06 M⁻¹ s⁻¹ | Kd [9]: 0.291 nM | koff [9]: 0.0018 s⁻¹ | kon [9]: 6.2e+06 M⁻¹ s⁻¹ | EC50 (read off the curve) [2]: ~0.08 µg/mL | Kd [10]: 0.28 nM | koff [10]: 0.00183 s⁻¹ | kon [10]: 6.58e+06 M⁻¹ s⁻¹ | Kd [8]: 0.641 nM | koff [8]: 0.00422 s⁻¹ | kon [8]: 6.58e+06 M⁻¹ s⁻¹

B17: H6L13 variant with VH CDR3 RQGY (antibody, human IgG1, kappa, V domains shown)
VH: B1 VH with G99R
VL: B1 VL
notes: as for B3
koff [5]: 0.0175 s⁻¹

B18: H6L13 variant with VH CDR3 GDGY (antibody, human IgG1, kappa, V domains shown)
VH: B1 VH with Q100D
VL: B1 VL
notes: as for B3
koff [5]: 0.0212 s⁻¹

B19: H6L13 variant with VH CDR3 GQWY (antibody, human IgG1, kappa, V domains shown)
VH: B1 VH with G101W
VL: B1 VL
notes: as for B3
koff [5]: 0.0177 s⁻¹

B20: H6L13 variant with VH CDR3 GQNY (antibody, human IgG1, kappa, V domains shown)
VH: B1 VH with G101N
VL: B1 VL
notes: as for B3
koff [5]: 0.00966 s⁻¹

B21: H6L13 variant with VH CDR3 IQGY (antibody, human IgG1, kappa, V domains shown)
VH: B1 VH with G99I
VL: B1 VL
notes: as for B3
koff [5]: 0.0172 s⁻¹

B22: H6L13 variant with VH CDR3 GVGY (antibody, human IgG1, kappa, V domains shown)
VH: B1 VH with Q100V
VL: B1 VL
notes: as for B3
koff [5]: 0.0178 s⁻¹

Biotin-SGSGYESIKHEPENPPPYEE [peptide 16]
binding result [1]: no binding (tested: about 33 mcg/ml)

Biotin-SGSGVLPDIVMEAPLNSAVP [peptide 7 (biotin-SGSG-VLPDIVMEAPLNSAVP)]
IC50 (read off the curve) [1]: ~0.9 µg/mL

Biotin-SGSGKHEPENPPPYEEAMSV [peptide 17]
binding result [1]: no binding (tested: about 33 mcg/ml)

B23: Hc(G95M)Lc (antibody, human IgG1, kappa, V domains shown)
VH: QVQLQQPGTELVKPGASVKLSCKASGYTFTSYWMHWVKQRPGQGLEWIGNINPSNGGTNYNEKFKSKATLTVDKSSSTAYMQLSSLTSEDSAVYYCELMQGYWGQGTLVTVSS
VL: DIVITQDELSNPVTSGESVSISCRSSKSLLYKDGKTYLNWFLQRPGQSPQLLIYLMSTRASGVSDRFSGSGSGTDFTLEISRVKAEDVGVYYCQQLVEYPLTFGAGTKLELKR
notes: also called HcLc containing the G95M mutation of the CDR H3
koff [4]: 0.000614 s⁻¹
